# In patent US20110064742 (published 2011):
# Bridge positions count the residues as written; N and C are the ends. Square brackets hold non-standard residues; d marks the D form. Phe(4-Cl) = N[C@@H](Cc1ccc(Cl)cc1)C(=O)O; dPhe(4-Cl) = N[C@H](Cc1ccc(Cl)cc1)C(=O)O; Phe(4-F) = N[C@@H](Cc1ccc(F)cc1)C(=O)O; 2Nal = N[C@@H](Cc1ccc2ccccc2c1)C(=O)O; 3Pal = N[C@@H](Cc1cccnc1)C(=O)O
# B1: PRL-2915 (peptide)
# chain: H-[Phe(4-Cl)]C[3Pal][dW]KIC[2Nal]-NH2
# modifications: disulfide 2-7
# SMILES: CC[C@H](C)[C@@H]1NC(=O)[C@H](CCCCN)NC(=O)[C@@H](Cc2c[nH]c3ccccc23)NC(=O)[C@H](Cc2cccnc2)NC(=O)[C@@H](NC(=O)[C@@H](N)Cc2ccc(Cl)cc2)CSSC[C@@H](C(=O)N[C@@H](Cc2ccc3ccccc3c2)C(N)=O)NC1=O
# B2: PRL-2970 (peptide)
# chain: XCYWKTCX
# modifications: cyclic disulfide; H-Cpa-cyclo[DCys-Tyr-DTrp-Lys-Thr-Cys]-Nal-NH2
# B3: AC-178,335 (peptide)
# chain: Ac-HFIRWF-NH2
# B4: BIM 23,627 (peptide)
# chain: H-[dPhe(4-Cl)][dC][3Pal]WKVC[2Nal]-NH2
# modifications: disulfide 2-7
# SMILES: CC(C)[C@@H]1NC(=O)[C@H](CCCCN)NC(=O)[C@H](Cc2c[nH]c3ccccc23)NC(=O)[C@H](Cc2cccnc2)NC(=O)[C@H](NC(=O)[C@H](N)Cc2ccc(Cl)cc2)CSSC[C@@H](C(=O)N[C@@H](Cc2ccc3ccccc3c2)C(N)=O)NC1=O
# B5: BIM 23,458 (peptide)
# chain: H-[Phe(4-F)][dC][3Pal][dW]KIC[2Nal]-NH2
# modifications: disulfide 2-7
# SMILES: CC[C@H](C)[C@@H]1NC(=O)[C@H](CCCCN)NC(=O)[C@@H](Cc2c[nH]c3ccccc23)NC(=O)[C@H](Cc2cccnc2)NC(=O)[C@H](NC(=O)[C@@H](N)Cc2ccc(F)cc2)CSSC[C@@H](C(=O)N[C@@H](Cc2ccc3ccccc3c2)C(N)=O)NC1=O
# B6: BIM 23,454 (peptide)
# chain: H-[Phe(4-Cl)]C[3Pal]WKVC[2Nal]-NH2
# modifications: cysteine pairing not given here
# Target: SSTR-2 (human)
# Sequence (chain, as listed by the source): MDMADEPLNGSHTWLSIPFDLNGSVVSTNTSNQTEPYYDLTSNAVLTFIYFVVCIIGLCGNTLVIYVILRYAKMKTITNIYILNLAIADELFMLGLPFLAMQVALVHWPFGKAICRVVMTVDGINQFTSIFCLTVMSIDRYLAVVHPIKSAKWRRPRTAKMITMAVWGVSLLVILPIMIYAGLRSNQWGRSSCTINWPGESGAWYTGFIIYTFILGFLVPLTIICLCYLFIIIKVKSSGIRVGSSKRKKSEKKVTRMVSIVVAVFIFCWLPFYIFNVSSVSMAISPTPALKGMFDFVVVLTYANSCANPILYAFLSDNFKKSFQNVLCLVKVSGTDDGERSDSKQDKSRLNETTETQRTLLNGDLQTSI
row,Binder,Ki [nM]
1,B1,12.6
2,B2,25.1
3,B3,158

# Target: SSTR-2 (human)
# Remark: another data set of the same source
row,Binder,IC50 [nM]
1,B4,6.4
2,B5,27.4
3,B6,31.6
